The data set concerns the target recombinant PARP-1 (rPARP-1) (UniProt P09874 1-1014). The data set is described as follows: Southwestern blot.

Sequence of recombinant PARP-1 (rPARP-1) (P09874 whole entry): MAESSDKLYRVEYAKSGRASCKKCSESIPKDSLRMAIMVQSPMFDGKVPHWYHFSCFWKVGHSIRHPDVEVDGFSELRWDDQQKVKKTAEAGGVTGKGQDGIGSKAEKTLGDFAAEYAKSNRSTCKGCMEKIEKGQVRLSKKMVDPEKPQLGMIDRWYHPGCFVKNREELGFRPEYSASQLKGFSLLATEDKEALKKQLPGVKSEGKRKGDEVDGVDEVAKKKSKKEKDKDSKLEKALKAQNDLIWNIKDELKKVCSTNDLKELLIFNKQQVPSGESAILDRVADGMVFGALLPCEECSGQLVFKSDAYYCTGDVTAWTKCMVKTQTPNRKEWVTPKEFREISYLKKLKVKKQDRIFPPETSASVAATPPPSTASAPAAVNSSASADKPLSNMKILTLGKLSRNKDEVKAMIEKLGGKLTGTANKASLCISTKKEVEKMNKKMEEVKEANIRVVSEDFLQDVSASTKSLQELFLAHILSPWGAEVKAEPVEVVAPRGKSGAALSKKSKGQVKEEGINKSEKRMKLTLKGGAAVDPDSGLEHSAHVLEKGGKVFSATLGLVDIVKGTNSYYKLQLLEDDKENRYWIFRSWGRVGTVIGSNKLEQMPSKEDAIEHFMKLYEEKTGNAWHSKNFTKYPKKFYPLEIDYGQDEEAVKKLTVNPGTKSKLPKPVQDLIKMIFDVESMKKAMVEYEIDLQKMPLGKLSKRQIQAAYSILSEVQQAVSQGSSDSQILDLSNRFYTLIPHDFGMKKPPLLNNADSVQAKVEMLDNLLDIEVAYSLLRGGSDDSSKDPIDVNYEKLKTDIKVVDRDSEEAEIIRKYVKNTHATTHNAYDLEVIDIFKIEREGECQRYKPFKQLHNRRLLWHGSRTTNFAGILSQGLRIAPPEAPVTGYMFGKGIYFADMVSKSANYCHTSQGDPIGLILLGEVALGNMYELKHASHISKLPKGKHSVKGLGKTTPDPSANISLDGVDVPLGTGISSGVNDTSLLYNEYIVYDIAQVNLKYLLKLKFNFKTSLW

AGGGCGGTGTGGGAAGAGGGAAGAGGGGGAGG (structured_DNA) [32R (KRAS NHE G-quadruplex), radiolabelled]: the binding result is “binds”.

Values taken from article PMC2441797.
